Data on 6 sequences can be found in the supplement of paper PMC5998384.

For data set [1], the system named is HeLa Kyoto. The data set is described as follows: thermal stability score vs G1/S (z-score of summed log2 fold changes over temperatures); higher = more thermally stable than in G1/S.
In data set [2] the test system is HeLa Kyoto. The data set is described as follows: solubility in G1/S (NP-40 vs SDS abundance) (log2 ratio); higher = more soluble. The note with it: cell cycle stage: G1/S.
The subject of data set [3] is HeLa Kyoto. The data set is described as follows: melting temperature (median over replicates), in situ; higher = more thermally stable.
For data set [4], the system named is HeLa Kyoto. The data set is described as follows: solubility change mitosis vs G1/S (difference of NP-40 vs SDS log2 ratios) (log2 ratio difference); higher = more soluble in mitosis.
The mark [5] stands for this setting: cell cycle stage: early G1 (4.5 h after nocodazole release).
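Wherever melting temperature (median over replicates), in situ is given: HeLa Kyoto cells synchronized by double thymidine or nocodazole block, proteins quantified by TMT10plex mass spectrometry, three independent biological replicates.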
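Wherever solubility change mitosis vs G1/S (difference of NP-40 vs SDS log2 ratios) is given: synchronized HeLa Kyoto cells (double thymidine block for G1/S, nocodazole release for mitosis), protein amounts in NP-40 versus SDS lysates quantified by mass spectrometry, three biological replicates.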
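Wherever solubility in G1/S (NP-40 vs SDS abundance) is given: HeLa Kyoto cells arrested at G1/S by double thymidine block, proteins quantified by TMT10plex mass spectrometry in mild NP-40 versus SDS extracts, three biological replicates.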
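Wherever thermal stability score vs G1/S (z-score of summed log2 fold changes over temperatures) is given: synchronized HeLa Kyoto cells, proteins quantified by TMT10plex mass spectrometry, three biological replicates, mitosis taken 0.5 h after nocodazole release, G1/S directly after double thymidine block.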

On to “MAQTPAFDKPKVELHVHLDGSIKPETILYYGRRRGIALPANTAEGLLNVIGMDKPLTLPDFLAKFDYYMPAIAGCREAIKRIAYEFVEMKAKEGVVYVEVRYSPHLLANSKVEPIPWNQAEGDLTPDEVVALVGQGLQEGERDFGVKARSILCCMRHQPNWSPKVVELCKKYQQQTVVAIDLAGDETIPGSSLLPGHVQAYQEAVKSGIHRTVHAGEVGSAEVVKEAVDILKTERLGHGYHTLEDQALYNRLRQENMHFEICPWSSYLTGAWKPDTEHAVIRLKNDQANYSLNTDDPLIFKSTLDTDYQMTKRDMGFTEEEFKRLNINAAKSSFLPEDEKRELLDLLYKAYGMPPSASAGQNL [ADA]”, for which the thermal stability score is -1.89 with HeLa Kyoto [1] (setting [5]) and -1.32 in the data set on HeLa Kyoto [1] (cell cycle stage: mitosis). Besides, in the data set with HeLa Kyoto [2], the “solubility in G1/S (log2)” value was 0.319. Besides, the melting temperature in the data set on HeLa Kyoto [3] (cell cycle stage: G1/S) was 57.9 °C; with HeLa Kyoto [3] (cell cycle stage: mitosis), 59.2 °C. The “solubility change mitosis (log2)” value in the data set on HeLa Kyoto [4] was -0.0197.

Take “MAQVAMSTLPVEDEESSESRMVVTFLMSALESMCKELAKSKAEVACIAVYETDVFVVGTERGRAFVNTRKDFQKDFVKYCVEEEEKAAEMHKMKSTTQANRMSVDAVEIETLRKTVEDYFCFCYGKALGKSTVVPVPYEKMLRDQSAVVVQGLPEGVAFKHPENYDLATLKWILENKAGISFIIKRPFLEPKKHVGGRVMVTDADRSILSPGGSCGPIKVKTEPTEDSGISLEMAAVTVKEESEDPDYYQYNIQAGPSETDDVDEKQPLSKPLQGSHHSSEGNEGTEMEVPAEDSTQHVPSETSEDPEVEVTIEDDDYSPPSKRPKANELPQPPVPEPANAGKRKVREFNFEKWNARITDLRKQVEELFERKYAQAIKAKGPVTIPYPLFQSHVEDLYVEGLPEGIPFRRPSTYGIPRLERILLAKERIRFVIKKHELLNSTREDLQLDKPASGVKEEWYARITKLRKMVDQLFCKKFAEALGSTEAKAVPYQKFEAHPNDLYVEGLPENIPFRSPSWYGIPRLEKIIQVGNRIKFVIKRPELLTHSTTEVTQPRTNTPVKEDWNVRITKLRKQVEEIFNLKFAQALGLTEAVKVPYPVFESNPEFLYVEGLPEGIPFRSPTWFGIPRLERIVRGSNKIKFVVKKPELVISYLPPGMASKINTKALQSPKRPRSPGSNSKVPEIEVTVEGPNNNNPQTSAVRTPTQTNGSNVPFKPRGREFSFEAWNAKITDLKQKVENLFNEKCGEALGLKQAVKVPFALFESFPEDFYVEGLPEGVPFRRPSTFGIPRLEKILRNKAKIKFIIKKPEMFETAIKESTSSKSPPRKINSSPNVNTTASGVEDLNIIQVTIPDDDNERLSKVEKARQLREQVNDLFSRKFGEAIGMGFPVKVPYRKITINPGCVVVDGMPPGVSFKAPSYLEISSMRRILDSAEFIKFTVIRPFPGLVINNQLVDQSESEGPVIQESAEPSQLEVPATEEIKETDGSSQIKQEPDPTW [GTF2I]”: the thermal stability score in the data set on HeLa Kyoto [1] (setting [5]) amounted to 6.54; with HeLa Kyoto [1] (cell cycle stage: mitosis) it was 16.3. The “solubility in G1/S (log2)” value with HeLa Kyoto [2] was found to be 0.0586. Also, the melting temperature was 45.4 °C in the data set on HeLa Kyoto [3] (cell cycle stage: G1/S) and 48.5 °C in the data set with HeLa Kyoto [3] (cell cycle stage: mitosis). The “solubility change mitosis (log2)” value with HeLa Kyoto [4] came out at 0.0472.

Turning to “MARAAALLPSRSPPTPLLWPLLLLLLLETGAQDVRVQVLPEVRGQLGGTVELPCHLLPPVPGLYISLVTWQRPDAPANHQNVAAFHPKMGPSFPSPKPGSERLSFVSAKQSTGQDTEAELQDATLALHGLTVEDEGNYTCEFATFPKGSVRGMTWLRVIAKPKNQAEAQKVTFSQDPTTVALCISKEGRPPARISWLSSLDWEAKETQVSGTLAGTVTVTSRFTLVPSGRADGVTVTCKVEHESFEEPALIPVTLSVRYPPEVSISGYDDNWYLGRTDATLSCDVRSNPEPTGYDWSTTSGTFPTSAVAQGSQLVIHAVDSLFNTTFVCTVTNAVGMGRAEQVIFVRETPNTAGAGATGGIIGGIIAAIIATAVAATGILICRQQRKEQTLQGAEEDEDLEGPPSYKPPTPKAKLEAQEMPSQLFTLGASEHSPLKTPYFDAGASCTEQEMPRYHELPTLEERSGPLHPGATSLGSPIPVPPGPPAVEDVSLDLEDEEGEEEEEYLDKINPIYDALSYSSPSDSYQGKGFVMSRAMYV [PVRL2]”, the thermal stability score with HeLa Kyoto [1] (setting [5]) was -2.1; in the data set on HeLa Kyoto [1] (cell cycle stage: mitosis), -3.87. In addition, the “solubility in G1/S (log2)” value in the data set with HeLa Kyoto [2] worked out at 0.108. The values for the melting temperature with HeLa Kyoto [3] (cell cycle stage: G1/S) and with HeLa Kyoto [3] (cell cycle stage: mitosis) were 56.9 °C and 55.4 °C, respectively. For the same sequence, in the data set with HeLa Kyoto [4], the “solubility change mitosis (log2)” value turned out to be 0.0111.

For the sequence “MARAMAAAWPLLLVALLVLSWPPPGTGDVVVQAPTQVPGFLGDSVTLPCYLQVPNMEVTHVSQLTWARHGESGSMAVFHQTQGPSYSESKRLEFVAARLGAELRNASLRMFGLRVEDEGNYTCLFVTFPQGSRSVDIWLRVLAKPQNTAEVQKVQLTGEPVPMARCVSTGGRPPAQITWHSDLGGMPNTSQVPGFLSGTVTVTSLWILVPSSQVDGKNVTCKVEHESFEKPQLLTVNLTVYYPPEVSISGYDNNWYLGQNEATLTCDARSNPEPTGYNWSTTMGPLPPFAVAQGAQLLIRPVDKPINTTLICNVTNALGARQAELTVQVKEGPPSEHSGISRNAIIFLVLGILVFLILLGIGIYFYWSKCSREVLWHCHLCPSSTEHASASANGHVSYSAVSRENSSSQDPQTEGTR [PVR]”, the thermal stability score was -1.4 with HeLa Kyoto [1] (setting [5]) and -2.91 in the data set with HeLa Kyoto [1] (cell cycle stage: mitosis). In the data set with HeLa Kyoto [2], the “solubility in G1/S (log2)” value worked out at 0.109. In addition, the melting temperature in the data set on HeLa Kyoto [3] (cell cycle stage: G1/S) and in the data set with HeLa Kyoto [3] (cell cycle stage: mitosis) was 55 °C each time. Also, in the data set on HeLa Kyoto [4], the “solubility change mitosis (log2)” value turned out to be 0.164.

Consider “MARENGESSSSWKKQAEDIKKIFEFKETLGTGAFSEVVLAEEKATGKLFAVKCIPKKALKGKESSIENEIAVLRKIKHENIVALEDIYESPNHLYLVMQLVSGGELFDRIVEKGFYTEKDASTLIRQVLDAVYYLHRMGIVHRDLKPENLLYYSQDEESKIMISDFGLSKMEGKGDVMSTACGTPGYVAPEVLAQKPYSKAVDCWSIGVIAYILLCGYPPFYDENDSKLFEQILKAEYEFDSPYWDDISDSAKDFIRNLMEKDPNKRYTCEQAARHPWIAGDTALNKNIHESVSAQIRKNFAKSKWRQAFNATAVVRHMRKLHLGSSLDSSNASVSSSLSLASQKDCLAPSTLCSFISSSSGVSGVGAERRPRPTTVTAVHSGSK [CAMK1D]”, for which the thermal stability score came to 0.0756 in the data set with HeLa Kyoto [1] (setting [5]) and 0.252 in the data set with HeLa Kyoto [1] (cell cycle stage: mitosis). The “solubility in G1/S (log2)” value in the data set with HeLa Kyoto [2] came out at 0.0619. Also, the values for the melting temperature in the data set on HeLa Kyoto [3] (cell cycle stage: G1/S) and in the data set with HeLa Kyoto [3] (cell cycle stage: mitosis) were 49.8 °C and 50.3 °C, respectively. Further, the “solubility change mitosis (log2)” value in the data set on HeLa Kyoto [4] is -0.0784.

For the sequence “MARFALTVVRHGETRFNKEKIIQGQGVDEPLSETGFKQAAAAGIFLNNVKFTHAFSSDLMRTKQTMHGILERSKFCKDMTVKYDSRLRERKYGVVEGKALSELRAMAKAAREECPVFTPPGGETLDQVKMRGIDFFEFLCQLILKEADQKEQFSQGSPSNCLETSLAEIFPLGKNHSSKVNSDSGIPGLAASVLVVSHGAYMRSLFDYFLTDLKCSLPATLSRSELMSVTPNTGMSLFIINFEEGREVKPTVQCICMNLQDHLNGLTETR [TIGAR]”, the thermal stability score was -0.092 in the data set with HeLa Kyoto [1] (setting [5]) and 0.286 in the data set on HeLa Kyoto [1] (cell cycle stage: mitosis). In the data set with HeLa Kyoto [2], the “solubility in G1/S (log2)” value came out at 0.348. The melting temperature turned out to be 50.2 °C in the data set on HeLa Kyoto [3] (cell cycle stage: G1/S) and 50.3 °C in the data set on HeLa Kyoto [3] (cell cycle stage: mitosis). In addition, in the data set with HeLa Kyoto [4], the “solubility change mitosis (log2)” value was -0.0797.
